Publication doi:10.1101/2022.05.25.493364

Target: cGAS (cyclic GMP-AMP synthase) of the Serratia marcescens E2-CBASS operon, N-terminal 6×His-tag (Serratia marcescens)
Assay: in vitro covalent bonding assay

Substance: E2 of the Serratia marcescens E2-CBASS operon, N-terminal 6×His-tag (enzyme)
- rate of isopeptide bond (+DTT) formation: 0.5 min⁻¹
- rate of total bond (thioester+isopeptide, -DTT) formation: 0.63 min⁻¹
